Source: US20160244525A1

What was measured:
[1] = target: FGFR3-IIIb (human); assay: SPR (Biacore T100), IgG captured by anti-human Fc, FGFR flowed
[2] = target: FGFR3-D2 (human) (UniProt P22607); assay: SPR (Biacore)
[3] = target: FGFR3-IIIb (D2D3) (human); assay: SPR (Biacore)
[4] = target: FGFR3-IIIb (human); assay: blocking ELISA: FGFR3-IIIb-Fc captured on an anti-human Fc plate, antibody titrated, FGF-1 (with heparin) is the blocked ligand, bound FGF-1 read as OD450
[5] = target: FGFR3-IIIb (human); assay: SPR

FGFR3-IIIb (human), sequence (chain, as listed by the source limits assumed): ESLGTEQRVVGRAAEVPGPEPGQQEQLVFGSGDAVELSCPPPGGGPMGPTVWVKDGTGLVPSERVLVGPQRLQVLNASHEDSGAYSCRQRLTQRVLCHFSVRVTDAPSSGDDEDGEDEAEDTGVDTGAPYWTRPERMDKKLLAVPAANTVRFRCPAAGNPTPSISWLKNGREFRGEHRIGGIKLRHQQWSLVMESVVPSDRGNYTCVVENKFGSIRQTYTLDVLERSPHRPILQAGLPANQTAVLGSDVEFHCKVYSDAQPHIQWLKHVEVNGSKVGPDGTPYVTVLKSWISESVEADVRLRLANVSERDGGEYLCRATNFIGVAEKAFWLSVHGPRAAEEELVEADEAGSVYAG
R3Mab (antibody), sequence (VH): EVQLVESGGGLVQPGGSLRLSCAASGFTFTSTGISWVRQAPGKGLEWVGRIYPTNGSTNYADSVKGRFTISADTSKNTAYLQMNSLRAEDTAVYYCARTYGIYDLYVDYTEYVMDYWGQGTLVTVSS
R3Mab (antibody), sequence (VL): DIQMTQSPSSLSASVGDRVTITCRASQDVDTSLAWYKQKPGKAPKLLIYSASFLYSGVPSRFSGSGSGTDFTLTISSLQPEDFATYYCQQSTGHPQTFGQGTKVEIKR
FGFR3-D2 (human), sequence (P22607 150-248 limits assumed): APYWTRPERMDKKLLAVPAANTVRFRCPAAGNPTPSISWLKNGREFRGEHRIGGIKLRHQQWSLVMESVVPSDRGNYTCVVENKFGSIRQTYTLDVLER
FGFR3-IIIb (D2D3) (human), sequence (chain, as listed by the source limits assumed): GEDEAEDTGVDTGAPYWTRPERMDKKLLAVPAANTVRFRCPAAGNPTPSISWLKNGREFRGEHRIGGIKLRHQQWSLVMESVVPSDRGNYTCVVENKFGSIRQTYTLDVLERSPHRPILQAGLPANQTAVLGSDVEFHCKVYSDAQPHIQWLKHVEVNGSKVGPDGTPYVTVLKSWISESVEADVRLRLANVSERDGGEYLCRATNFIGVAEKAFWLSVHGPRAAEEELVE

R3Mab (antibody)
Kd [1]: 240 pM | Kd [2]: 260 pM | Kd [3]: 240 pM | IC50 (read off the curve) [4]: 1000 to 2000 pM | Kd [5]: 240 pM
